The target in data set [1] is T1, Zα and 6-FAM-d(CG)6 duplex (Homo sapiens, UniProt P55265).
T1 construct: Zα of human ADAR1; residues 133–209; His6 (pMCSG7, followed by a TEV site) (N, cleaved yes); made in house; host or cells: E. coli BL21(DE3)
T1 sequence (P55265 133-209): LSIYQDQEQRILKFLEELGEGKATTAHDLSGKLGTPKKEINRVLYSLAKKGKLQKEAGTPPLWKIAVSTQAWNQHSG
Nature of the data set: FP competition: displacement of Zα binding to 6-FAM-d(CG)6.

In data set [2] the target is MBDDE (MBD domain of MBD3 connected to the acidic tail; residues 263–291), tag-free (human) (UniProt O95983). Nature of the data set: SEC; Zα (400 μM) and MBDDE (100 μM), or Zα and MBD under the same conditions, 4:1 molar ratio; 20 mM Tris-HCl pH 7.5, 50 mM NaCl, 1 mM TCEP; Superdex 75 10/300 GL; fractions on SDS-PAGE.
In data set [3] the target is Zα, tag-free (Z-DNA binding domain of human ADAR1, residues 133-209) (human) (UniProt P55265). Description: fluorescence polarisation; competition: unlabelled peptide added to the pre-incubated mixture of Zα and 6-FAM-d(CG)6 duplex; 20 mM HEPES-NaOH pH 7.5, 50 mM NaCl, 1 mM DTT; dose-response (variable slope) model.
The target of a further data set is T2, Zα (Homo sapiens, UniProt P55265).
T2 construct: Zα of human ADAR1; residues 133–209; His6 (pMCSG7, followed by a TEV site) (N, cleaved yes); made in house; host or cells: E. coli BL21(DE3)
T2 sequence (P55265 133-209): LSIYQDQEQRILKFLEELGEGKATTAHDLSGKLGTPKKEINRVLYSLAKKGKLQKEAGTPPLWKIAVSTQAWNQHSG
Nature of the data set: SEC / SDS-PAGE complex formation with Zα. It counts as binding. As for the experimental part: Equimolar amounts (0.1 mM) of Zα and DE-rich peptide were incubated on ice for 1 h in a buffer containing 20 mM HEPES–NaOH pH 7.5, 50 mM NaCl, 1 mM DTT. The mixture was then loaded on a Superdex 30 16/600 column (GE Healthcare) equilibrated in the same buffer. The fractions from the peaks corresponding to Zα alone and the complex of Zα and DE-rich peptide were collected and used for chemical cross-linking.
To analyze complex formation of Zα and other proteins (MBD3, MBD or MBDDE), the mixtures were incubated on ice for 1 h in a buffer containing 20 mM Tris–HCl pH 7.5, 50 mM NaCl, 1 mM TCEP. The mixture was then loaded on a Superdex 75 or Superdex 200 increase 10/300 column (GE Healthcare).

A further data set concerns d(CG)6 duplex. Description: Circular dichroism of d(CG)6 DNA conformation. As for the experimental part:
CD spectra were measured at 24°C on a J-815 Spectrometer (JASCO) using a 1 mm path length quartz cell. Prepare 7.5 μM DNA duplex in a buffer consisting of 5 mM HEPES–NaOH pH 7.5, 25 mM NaCl and 1 mM DTT, and in the absence or presence of indicated concentration of proteins. Spectra were recorded between 235 and 305 nm wavelength with a data pitch of 1 nm, bandwidth of 1 nm and with two accumulations at a scanning speed of 10 nm/min.
Figure 6. Zα can compete with the MBD domain for binding to d(CG)6, but not vice versa. (A) CD spectra of the d(CG)6 duplex in the presence of Zα. CD spectra of (B) the d(CG)6 and (C) the d(C^mG)6 duplex, respectively, in the presence of the MBD domain. (D) Monitoring of the change in CD spectra with the addition of increased amounts of Zα to the pre-incubated mixture of the MBD domain and d(CG)6. (E) Monitoring of the change in CD spectra with the addition of increased amount of the MBD domain to the pre-incubated mixture of Zα and d(CG)6. Spectra are expressed in absolute values of ellipticity in millidegrees (mdeg).

Data set [4] deals with the molecule itself. Description: SEC; purified MBDDE or MBD alone on Superdex 75 10/300 GL against protein standards.
Data set [5] is described as follows: Stability of E. coli-expressed protein. It counts as physicochemical. Particulars: recombinant E. coli-expressed protein.
Data set [6] deals with T3, Zα, tag-free (Z-DNA binding domain of human ADAR1, residues 133-209) (human), P55265.
T3 chain: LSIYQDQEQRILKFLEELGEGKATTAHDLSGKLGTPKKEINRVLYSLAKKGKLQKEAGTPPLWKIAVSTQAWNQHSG
Nature of the data set: fluorescence polarisation; competition: unlabelled peptide added to the pre-incubated mixture of Zα and 6-FAM-d(CG)6 duplex; 20 mM HEPES-NaOH pH 7.5, 50 mM NaCl, 1 mM DTT; dose-response (variable slope) model.

Data set [7] concerns the target T4, MBD3 (full-length human MBD3; residue 1–291), tag-free (human), O95983.
T4 chain: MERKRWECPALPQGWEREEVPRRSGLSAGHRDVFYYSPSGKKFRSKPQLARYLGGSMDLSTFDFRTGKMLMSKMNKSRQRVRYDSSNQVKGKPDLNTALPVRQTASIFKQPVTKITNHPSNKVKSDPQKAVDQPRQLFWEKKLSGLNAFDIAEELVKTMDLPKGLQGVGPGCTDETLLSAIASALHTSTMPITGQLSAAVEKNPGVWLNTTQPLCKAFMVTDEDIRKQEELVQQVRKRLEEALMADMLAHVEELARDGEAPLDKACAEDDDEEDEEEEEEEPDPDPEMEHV
Description: SEC; purified MBD3 alone on Superdex 200 increase 10/300 GL against protein standards. Particulars: remark: other sources report otherwise.

The next data set has as its system endogenous ADAR1. Description: FLAG immunoprecipitation of endogenous ADAR1 in 293F cells. Particulars: anti-ADAR1 western blot. It counts as cell-based, human. The protocol:
For expressing FLAG-MBD3 and its mutants in 293F cells (Freestyle™ 293 Expression System; Invitrogen), the DNA fragments were PCR amplified and inserted into HindIII site of pFLAG-CMV-2 vector (Sigma-Aldrich). The plasmids were purified by EasyPrep EndoFree Maxi Plasmid Extraction Kit (BIOTOOLS Co., Ltd, Taiwan) and transiently transfected into 293F cells using 293fectin (Invitrogen) according to the manufacturer's guidelines.
After 48 h posttransfection, the cells were washed with cold PBS and lysed with lysis buffer [50 mM Tris–HCl pH 7.5, 0.3% NP-40, 100 mM potassium acetate, 10% glycerol, 50 U/ml Benzonaes (Novagen) and EDTA-free protease inhibitor cocktail tablet (Roche)]. The lysates were incubated with anti-FLAG M2 Affinity Gel (A2220; Sigma-Aldrich) on a rotation at 4°C overnight. […] The immunoprecipitates were eluted by FLAG peptide (F4799; Sigma-Aldrich) and resolved by a NuPAGE 12% Bis–Tris gel (Invotrogen). Specific antibodies used for western blotting were Rabbit anti-FLAG (1:5000; F7425; Sigma-Aldrich) and rabbit anti-ADAR1 D7E2M (1:1000; 14175; Cell Signaling Technology).

Data on nine molecules can be found in PMC6294567, “The C-terminal D/E-rich domain of MBD3 is a putative Z-DNA mimic that competes for Zα DNA-binding activity” (Nucleic Acids Research, 2018).

“And” between values parts separate entries of the source, which are not always exact repeats. Identical values can stand only once.

Take poly-L-glutamic acid [polyE]: in data set [1] (6-FAM-d(CG)6), the “competition with d(CG)6 for binding to Zα (in words)” value is reported as “could compete with Zα binding to d(CG)6, although the efficiency was lower than full-length D/E-rich peptide”. In addition, the “concentration at 50% displacement (IC50)” value in [1] (pre-incubated Zα and 6-FAM-d(CG)6, triplicate, 95% CI 3.4–8.9 μg/ml) was 5.5 µg/mL.
“Zα, tag-free (Z-DNA binding domain of human ADAR1, residues 133-209) (from UniProt P55265 133-209) (domain or fragment)”: the stoichiometry N in data set [2] is 1 Zα per MBDDE and 2 Zα per MBDDE.
For “poly-L-glutamic acid (1500–5500 Da; Sigma) peptide”, the 50% inhibitory concentration (IC50) in data set [3] was in the range of 1000 to 3700 nM.

B1: MBD domain: MBD domain of MBD3; residues 1–72 (protein)
chain: MERKRWECPALPQGWEREEVPRRSGLSAGHRDVFYYSPSGKKFRSKPQLARYLGGSMDLSTFDFRTGKMLMS
modifications: left off: His6, N-terminal, cleaved
For the molecule B1, the “complex formation with Zα on SEC” value in the data set with Zα (Zα : MBD 4:1 molar ratio, Superdex 75 10/300 GL) is “no complex formation was detected”. Also, the “DNA conformation after binding” value with d(CG)6 duplex (CD 235-305 nm, 24°C, 7.5 μM DNA duplex, 5 mM HEPES–NaOH pH 7.5, 25 mM NaCl, 1 mM DTT) is on record as “kept the duplex DNA in B-form”. Besides, the “competition for binding to d(CG)6 (MBD domain added to pre-incubated Zα and d(CG)6)” value in the data set with d(CG)6 duplex (CD, increasing MBD domain) is “could not compete with the binding of Zα and Z-DNA”.

B2: MBDDE (MBD domain of MBD3 connected to the acidic tail; residues 263–291), tag-free (domain or fragment, human, UniProt O95983-1 1-72, looked up)
chain: MERKRWECPALPQGWEREEVPRRSGLSAGHRDVFYYSPSGKKFRSKPQLARYLGGSMDLSTFDFRTGKMLMSDKACAEDDDEEDEEEEEEEPDPDPEMEHV
notes: MBD domain of human MBD3; its limits (1-72) are those printed for the MBD3MBD construct; No linker between the two stretches is mentioned; The protein was partly degraded from the C-terminal disordered region by mass spectrometry; source: E. coli BL21(DE3), purified (Ni-NTA, TEV cleavage, reverse Ni-NTA, gel filtration); not shown: His6, N-terminal, cleaved
B2: the “stoichiometry N” value in data set [4] turned out to be 2.

B3: MBDDE: MBD domain of MBD3 connected to the acidic tail; residues 263–291 (protein)
chain: MERKRWECPALPQGWEREEVPRRSGLSAGHRDVFYYSPSGKKFRSKPQLARYLGGSMDLSTFDFRTGKMLMSDKACAEDDDEEDEEEEEEEPDPDPEMEHV
modifications: left off: His6, N-terminal, cleaved
Take B3: the “efficiency of interaction with Zα relative to D/E peptide” value with Zα (SEC, Zα and MBDDE) is “less efficiently than with D/E peptide”. Also, the “complex formation with Zα on SEC” value with Zα (Zα 100 μM : protein 25 μM (4:1), ice 1 h, 20 mM Tris–HCl pH 7.5, 50 mM NaCl, 1 mM TCEP) is “could not detect stable complex formation of Zα and MBDDE”; with Zα (Zα 400 μM : MBDDE 100 μM (4:1), ice 1 h, Superdex 75, pH 7.5), “a small amount of MBDDE and Zα complex was detected”. Further, the “protein stability (in words)” value in [5] was “more sensitive to protease than the MBD domain”.

B4: D/E-rich peptide of MBD3, unlabelled (full-length D/E-rich peptide) (peptide)
chain: DKACAEDDDEEDEEEEEEEPDPDP
modifications: not checked
B4: the half-maximal inhibitory concentration (IC50) in data set [6] turned out to be 164 nM.

B5: MBD3 (full-length human MBD3; residue 1–291), tag-free, O95983-1 1-291 (natural protein)
chain: MERKRWECPALPQGWEREEVPRRSGLSAGHRDVFYYSPSGKKFRSKPQLARYLGGSMDLSTFDFRTGKMLMSKMNKSRQRVRYDSSNQVKGKPDLNTALPVRQTASIFKQPVTKITNHPSNKVKSDPQKAVDQPRQLFWEKKLSGLNAFDIAEELVKTMDLPKGLQGVGPGCTDETLLSAIASALHTSTMPITGQLSAAVEKNPGVWLNTTQPLCKAFMVTDEDIRKQEELVQQVRKRLEEALMADMLAHVEELARDGEAPLDKACAEDDDEEDEEEEEEEPDPDPEMEHV
For the molecule B5, in data set [7], the stoichiometry N amounted to 2.

B6: FLAG-MBD3: FLAG-tagged full-length MBD3 transiently expressed in 293F cells (protein)
chain: MERKRWECPALPQGWEREEVPRRSGLSAGHRDVFYYSPSGKKFRSKPQLARYLGGSMDLSTFDFRTGKMLMSKMNKSRQRVRYDSSNQVKGKPDLNTALPVRQTASIFKQPVTKITNHPSNKVKSDPQKAVDQPRQLFWEKKLSGLNAFDIAEELVKTMDLPKGLQGVGPGCTDETLLSAIASALHTSTMPITGQLSAAVEKNPGVWLNTTQPLCKAFMVTDEDIRKQEELVQQVRKRLEEALMADMLAHVEELARDGEAPLDKACAEDDDEEDEEEEEEEPDPDPEMEHV
modifications: left off: FLAG, end not stated, kept
notes: FLAG-tagged full-length MBD3 transiently expressed in 293F cells
Turning to B6, in the data set with endogenous ADAR1 (293F cells, FLAG-IP), the “co-immunoprecipitation of ADAR1-p110 (lacking Zα)” value is on record as “also pulled down”. Also, the “co-immunoprecipitation of endogenous ADAR1” value with endogenous ADAR1 (transient expression in 293F cells, anti-FLAG resin) was “endogenous ADAR1 was indeed pulled down”.
